A short description of the data set: yeast display, Sf9 membrane polyspecificity reagent, FACS + sequencing; frameworks hold sequencing errors. Put shortly: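 Synthetic nanobody libraries on Saccharomyces cerevisiae BJ5465 were galactose-induced for 36–48 hours, stained 1 hour at 4 °C with 10% biotinylated, detergent-solubilized Sf9 membrane reagent and enriched on streptavidin microbeads. FACS then separated cells into low and high (top ~1%) gates by anti-HA (expression) and streptavidin (reagent binding) fluorescence. Genes were colony-PCR amplified, MiSeq 2 × 250 sequenced and CDR-length filtered. A clone's polyreactivity label is that of its gate of origin.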
For “QVQLVESGGGLVQAGGSLRLICAASGRIFKNNAMGWYRQAPGKEREFVAAISSIGGRTYYADSVKGRFTISRDNAKNTVYLQMISLKPEDTAVYYCAARGYTGGLWYDYWGQGTQVTVSS”, the “polyreactivity (PSR sort gate)” value is “high polyreactivity”.
As for “QVQLVESGGGLVQAGGSLRLSCAASGFTFFHYAMGWYIQAPGKERELVAAITRSGSSTYYADSVKGRFTISRDNAKNTVYLQMNSLKPEDTAVYYCAADYISRGGYTIEDYWGQGTQVTVSS”, the entry is “low polyreactivity”.
The same measure for “QVQLVESGGGLVQAGGSLRLSCAASGFIFYAYAMGWYRQAPGKERELVAAISYSGGSTYYADSVKGRFTISRDNAKNTVYLQMNSLKPEDTAVYYCNTVSYGYSSKLYDYWGQGTLVTVSS”: “high polyreactivity”; for “QVQLVESGGGLVQAGGSRRLSCAASGIIFTRNSMGWYRQAPGKERELVAAISRSGGRTYYADSVKGRFTISRDNAKNTVYLQMNSLKPEDTAVYYCYPRDKNLQAYDYWGQGNQVTVSS”: “high polyreactivity”; for “QVQLVESGGGLVQAGGSLRLSCAASGRILGYYSMGWYRQAPGKERELVAGITSGGSTYYADSVKGRFTISRDNAKNTVYLQMNSLKPEDTAVYYCATVHGVYQRRYYFWGQGTQVTVSS”: “high polyreactivity”.
With “QVQLVESGGGLVQAGGSLRLSCAASGRIFTSYAMGWYRQAPGKERELVAAITASGGRTYYADSVKGRFTISRDNAKNTVYLQMNCLKPEDTAVYYCAKLLSFQGDYWGQGTQVTVSS”, the “polyreactivity (PSR sort gate)” value is recorded as “high polyreactivity”.
In the case of “QVQLVESGGGLVQAGGSLRLSCAASGSTFYWYAMGWYRQATGKERELVAVITVRGGSTYYADSVKGRFTISRDNAKYTVYLQMNSLKPEDTAVYYCAAEQTSSLYKYWYDYWGQGTQVTVSS”, the “polyreactivity (PSR sort gate)” value is on record as “low polyreactivity”.
The same measure for “QVQLVESGGGLVQAGGSLRLSCAASGFIFDDNAMGWYRQAPGKEREVVAAITSGGGSTYYADSVKGRFTISRDNAKNTVYLQMNSLKPEDTAVYYCNAVPSQHDEFDYWGQGTQVTVSS”: “low polyreactivity”; for “QVQLVESGGGLVQAGGSLRLSCAASGRILYIYAMGWYRQAPGKERELVASISWTDGSTYYADSVKGRFTISRDNAKNTVYLQMNSLKPEDTAVYYCNAAYYYYWDLKKYNYWGQGTQVTVSS”: “low polyreactivity”.
Regarding “QVQLVESGAGLVQAGGSLRLSCAASGSIFQPDAMGWYRQAPGKERELVAAITNCGSTYYADSVKGRFTISRDNAKNTVYLQMNSLNPEVTAVYYCAADVQSSHEYDYWGQGTQVTVSS”, the “polyreactivity (PSR sort gate)” value is on record as “low polyreactivity”.
As for “QVQLVESGGGLVQAGGSLRLSCAASGITFNKNAMGWYRQAPGKEREFVAAITRRGGSTYYADSVKGRFTISRDNAKNTVYLQMNSLKPEDTAVYYCAARPYWSYRRYDYWGQGTQVTVSS”, the entry is “high polyreactivity”; as for “QVQLVESGGGLVQAGASLRLSCAASVSTFGVNAMGCYRQAPGKERELVAAISSSGSSTYADSVKGRFTISRDNAKNTVYLQMNSLKPEDTAVYYCNITTLLSVVYDYWGQGTQVNVSS”, “low polyreactivity”.
As for “QVQLVESGGGLVQAGGSLRLICAASGRTFAYYAMGWYIQAPGKERELVAAISSSGGRTYYADSVKGRFTISRDNAKNTVYLQMNSLKPEDTAVYFCAAYTTVKKNGYWGQGTQVTVSS”, the entry is “high polyreactivity”.
The same measure for “QVQLVESGGGLVQAGGSLRLTCAASGIIFCDYVMGWYRQEPGKESELVAAISASGGRTYYADSVKGRFTISRDNAKNTVYLQMTSLKPEDTAVYYCNKRYRNRYSYSEGDYWGQGTQLTVSS”: “high polyreactivity”; for “QVQLVETGGGLVQAGGSLRLSCAPSGLSIGYYAMGWYRQAPGKEREFVAAITWNGGSTYADSVKGLFTISRDNAKNTVYLQMNSLKPEDTAVYYCAADLSYWDDFDYWGQGTQVTVSS”: “low polyreactivity”; for “QVQLVESGGGLVQAGGSLRLSCAANTMGCYRQAPGKERELVAAINTGSSTYYADSVKGRFRISRDNAKNTVYLQMYCLKPEDTAVYYCNASYPPYFEYRTRQYNYWGQGTQVTVSS”: “low polyreactivity”.
“QVQLVESRGCLVQAGGSLRLSCAASGFIFAYYAMGWYRQAPRKERELVGAISSGGTTNYADSVMGRFTSSRDNAKNTVYLQMNSLKPEDTAVYYCAAAWGYYSTTIYKYSFNYDFWGQGTQVTVSS”: the “polyreactivity (PSR sort gate)” value was “high polyreactivity”.
As for “QVQLQESGGGLVQAGASQRLSCAASGYIFYFQYMGWYRQAPGKEREFVAAISDGANTNYADSVKGRFTISRDNAKNTEYLQMNSLKPEDTAVYYCAVYADENYYYIYWGQGTQVTVSS”, the entry is “low polyreactivity”; as for “QVQLVESGGGLVQAGGSLRLSCAASGSTFNNYGMGWYTQAPGTERELVAAITKSGGITYYADSVKGRFTISRDNAKNTVYLQMNRLKREDTAVYYCAAAYTIYWFSYRVLYYYWGQGTQVTVSS”, “low polyreactivity”; as for “QVQLVESGGGLVQAGGSLRLICAASGSIFINNGMGWYRQAPGKERELVAAINGGDGSTYYADSVKGRFTISRDNAKNTVYLQMNSLKPEDTAVYYCAADQVTYSVEYDYWGQGTQVTVSS”, “low polyreactivity”.
As for “QVQLVVSGGGLVQAGGSLRLSCAASGYTFQGYAMGWYRQAPGKERELVAGISRSGGRTYYADSVKGRFTISRDNAKNTVYLQMNSLKPEDTAVYYCASTYPGAIRDYWGQGTQVTVSS”, the entry is “high polyreactivity”; as for “QVQLVESGGGLVQAGGSLRLSCAASGRTLSFYAMGWYRQAPGKERELVAAISRRGGSTYYADSVKGRFTISRDNAKNTVYLQMNSLKPEDTAVYYCAARRWYPYKNYDYWGQGTQVTVSS”, “high polyreactivity”.
“QVQLVESGGGLVQAGGSLRLSCAASGIIFSSYAMGWYRQAPGKERELVAAITRGGSTNYADSVKGRFTISRDNAKNTVYLQMNSLKPEDTAVYYCNALWRAYRNYHYIVKNDYWGEGTQVTVSS”: the “polyreactivity (PSR sort gate)” value was “high polyreactivity”.
As to “QVQLDESGGGLVQAGGSLRLSCAASGHIFFYYTMGWSRQAPRKEREFVAGITIGGSTNYADSVKGRFTISRDNAKYTVYLQKNSLKPEDTAVYYCNVVTYVYIYSYWEYYYWGQGTQVTVSS”, the “polyreactivity (PSR sort gate)” value was “low polyreactivity”.
As for “QVQLVESGGGLVQAGGSLRLSCAASGFTLWLNAMGWYRQAPGKERELLAAITTSDDGTYYADSVKGRFTISRDNAKNTVYLQMNSLKPEETAVYYCAADYYSVQYDYWGQGTQVTVSS”, the entry is “low polyreactivity”; as for “QVQLVESGVGLVQAGGSLRLSCAASGLTFVDNVMGWYRQAPRTERELVADISSSGGSTYADSVKGRFTISRDNAKNTVYFQMNSLKPEDTAVYYCAAGDDSSGEQVDYWGQGTQVTVSS”, “low polyreactivity”; as for “QVQLVESGGGLVQAGGSLRLSCAASGLTFSKNARGWYRQSPGKDRELVATISYSSSRTNYADSVKGRFTISRVNAKNPVYLQMNSLKPEDTAVYYCAARVYNGWPTHYDYWGQGTQVTVSS”, “high polyreactivity”.
On to “QVQLVESGGGLVQAGGSLRLSCAASGSFIVQNSMGWYRQAPAKERELVAANTRGGSTYYADSVKGRFTISRDNAKNTVYLQMNSLKPEDTAVYYCAAYWYYYLMDYWGQGTQVTVSS”, for which the “polyreactivity (PSR sort gate)” value is “low polyreactivity”.
As for “QVQLVESGGGIVQAGGSLRLSCAASGSTVVIYTMGWSRQAAGKEREFVASLSVSGGSTYYADSVKGRFTISRDYAKKTVYLQMNSLKPEDTAVYYCAAGYPYYYWTPYYYWGQGTQVTVSS”, the “polyreactivity (PSR sort gate)” value is given as “high polyreactivity”.
In the case of “QVQHVESGGGLVQAGGSLRLSIAASVFTFKGNAMGWYRQGPGKEMELVSTITQSGGSTYYADSVKGRFTISRDNAKNTVYLQMNSLKPEDTAVYFCNADPITLYYYSWYNYWGQGTQVTVSS”, the “polyreactivity (PSR sort gate)” value is “low polyreactivity”.

The values above are taken from the nanobody polyreactivity screen of Harvey et al. (2022).
